Each block holds one substance with its values, some of them ahead of it.
Experiments:
Experiment in all cases: SEC; Superdex 200 on an AKTA FPLC, 20 mM Tris, 1M NaCl, pH 8.0; column calibrated with globular protein standards; oligomeric state = estimated net mass divided by the calculated monomer mass (16.3 kDa)
[1] = biological target: flavin-binding fluorescent protein (FbFP) from Pseudomonas putida (Pseudomonas putida KT2440) (UniProt Q88JB0)
[2] = biological target: FbFP F37T (Pseudomonas putida KT2440) (UniProt Q88JB0)
[3] = biological target: FbFP F37S (Pseudomonas putida KT2440) (UniProt Q88JB0)

stoichiometry N [1]: 1.81
Substance: flavin-binding fluorescent protein (FbFP) from Pseudomonas putida (from UniProt Q88JB0 1-151) (natural protein)

stoichiometry N [2]: 1.87
Substance: FbFP F37T (from UniProt Q88JB0 1-151) (natural protein)

stoichiometry N [3]: 1.78
Substance: FbFP F37S (from UniProt Q88JB0 1-151) (natural protein)
